Test results from patent publication US20260248972A1, “DUAL RECEPTOR TARGETING RADIOLIGANDS AND USES THEREOF RELATED APPLICATIONS” (priority 2022, published 2026).
*1 amine or outer side, *2 acyl side, *3 side chain or, on linkers, in order; H or OH if unused. Where a SMILES comes first, the peptide text is derived from it. Bridges are numbered along the chain shown (N, C = ends). Side-chain parts run from the residue outwards. [ ]: non-standard residue; d: D form. The star is where a group is joined. X1 = CC(C)(C)C(=O)CN1C(=O)[C@H](N*)CN(C2CCCCC2)c2ccccc21; DOTA = O=C(O)CN1CCN(CC(=O)O)CCN(CC(=O)*)CCN(CC(=O)O)CC1; 3Abz = Nc1cccc(C(=O)O)c1; CO = O=C([*:1])[*:2]

Test: in vivo
Settings: BALB/c nude, mouse, in vivo, iv, total radioactivity
How it was run: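 Compounds labelled with ^177Lu in 0.5 M NaOAc pH 4.5 at 95° C for 15 min, then used directly or diluted in PBS with 3 mg/mL ascorbate. BALB/c nude mice bore subcutaneous AR42J flank xenografts (0.05-0.50 g). Organs excised at 4, 24 and 72 h post-injection and γ-counted for % ID and % ID/g.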

Compound `C[C@@H](O)[C@H](NC(=O)[C@@H]1CSSC[C@H](NC(=O)[C@@H](Cc2ccccc2)NC(=O)CNC(=O)[C@H](CO)NC(=O)CNC(=O)[C@H](CCCCNC(=O)c2cccc(NC(=O)N[C@@H]3CN(C4CCCCC4)c4ccccc4N(CC(=O)C(C)(C)C)C3=O)c2)NC(=O)CN2CCN(CC(=O)O)CCN(CC(=O)O)CCN(CC(=O)O)CC2)C(=O)N[C@@H](Cc2ccc(O)cc2)C(=O)N[C@H](Cc2c[nH]c3ccccc23)C(=O)N[C@@H](CCCCN)C(=O)N[C@@H]([C@@H](C)O)C(=O)N1)C(=O)O` [Compound 177Lu-I-54, metal not drawn] ({DOTA}-K([3Abz-CO-X1])GSG[dF]CY[dW]KTCT-OH; disulfide 6-11) has a tissue uptake at 4 h (% ID/g Adrenal gland) of 2.34 %ID/g, a tissue uptake at 24 h (% ID/g Adrenal gland) of 1.64 %ID/g and a tissue uptake at 72 h (% ID/g Adrenal gland) of 1.12 %ID/g. The tissue uptake at 4 h (% ID/g Blood) was 0.81 %ID/g, the tissue uptake at 24 h (% ID/g Blood) was 0.16 %ID/g and the tissue uptake at 72 h (% ID/g Blood) was 0.09 %ID/g. It also gave a tissue uptake at 4 h (% ID/g Fat) of 3.5 %ID/g, a tissue uptake at 24 h (% ID/g Fat) of 3.78 %ID/g and a tissue uptake at 72 h (% ID/g Fat) of 2.66 %ID/g. It also gave a tissue uptake at 4 h (% ID/g Femur) of 0.83 %ID/g, a tissue uptake at 24 h (% ID/g Femur) of 0.66 %ID/g and a tissue uptake at 72 h (% ID/g Femur) of 0.79 %ID/g. It also gave a tissue uptake at 4 h (% ID/g Heart) of 1.29 %ID/g, a tissue uptake at 24 h (% ID/g Heart) of 0.65 %ID/g and a tissue uptake at 72 h (% ID/g Heart) of 0.5 %ID/g. It also gave a tissue uptake at 4 h (% ID/g Intestine) of 2.07 %ID/g, a tissue uptake at 24 h (% ID/g Intestine) of 1.56 %ID/g and a tissue uptake at 72 h (% ID/g Intestine) of 1.14 %ID/g. For the same compound, the tissue uptake at 4 h (% ID/g Kidney) was 20.7 %ID/g, the tissue uptake at 24 h (% ID/g Kidney) was 10.5 %ID/g and the tissue uptake at 72 h (% ID/g Kidney) was 8.45 %ID/g. The tissue uptake at 4 h (% ID/g Liver) was 31.6 %ID/g, the tissue uptake at 24 h (% ID/g Liver) was 9.6 %ID/g and the tissue uptake at 72 h (% ID/g Liver) was 5.01 %ID/g. For the same compound, the tissue uptake at 4 h (% ID/g Lung) was 2.65 %ID/g, the tissue uptake at 24 h (% ID/g Lung) was 2.77 %ID/g and the tissue uptake at 72 h (% ID/g Lung) was 1.91 %ID/g. It also gave a tissue uptake at 4 h (% ID/g Muscle) of 0.3 %ID/g, a tissue uptake at 24 h (% ID/g Muscle) of 0.21 %ID/g and a tissue uptake at 72 h (% ID/g Muscle) of 0.16 %ID/g. The tissue uptake at 4 h (% ID/g Pancreas) was 3.91 %ID/g, the tissue uptake at 24 h (% ID/g Pancreas) was 2.65 %ID/g and the tissue uptake at 72 h (% ID/g Pancreas) was 2.42 %ID/g. For the same compound, the tissue uptake at 4 h (% ID/g Spleen) was 1.25 %ID/g, the tissue uptake at 24 h (% ID/g Spleen) was 0.71 %ID/g and the tissue uptake at 72 h (% ID/g Spleen) was 1.28 %ID/g. For the same compound, the tissue uptake at 4 h (% ID/g Stomach) was 4.81 %ID/g, the tissue uptake at 24 h (% ID/g Stomach) was 4.1 %ID/g and the tissue uptake at 72 h (% ID/g Stomach) was 4.2 %ID/g. For the same compound, the tissue uptake at 4 h (% ID/g Tumor) was 30 %ID/g, the tissue uptake at 24 h (% ID/g Tumor) was 25.7 %ID/g and the tissue uptake at 72 h (% ID/g Tumor) was 19.6 %ID/g.
For `C[C@@H](O)[C@H](NC(=O)[C@@H]1CSSC[C@H](NC(=O)[C@@H](Cc2ccccc2)NC(=O)[C@H](CCCCNC(=O)COCCOCCNC(=O)c2cccc(NC(=O)N[C@@H]3CN(C4CCCCC4)c4ccccc4N(CC(=O)C(C)(C)C)C3=O)c2)NC(=O)CN2CCN(CC(=O)O)CCN(CC(=O)O)CCN(CC(=O)O)CC2)C(=O)N[C@@H](Cc2ccc(O)cc2)C(=O)N[C@H](Cc2c[nH]c3ccccc23)C(=O)N[C@@H](CCCCN)C(=O)N[C@@H]([C@@H](C)O)C(=O)N1)C(=O)O` [^177Lu-I-36, metal not drawn], the tissue uptake at 4 h (% ID/g Adrenal gland) was 2.48 %ID/g, the tissue uptake at 24 h (% ID/g Adrenal gland) was 1.67 %ID/g and the tissue uptake at 72 h (% ID/g Adrenal gland) was 0.87 %ID/g. It also gave a tissue uptake at 4 h (% ID/g Blood) of 2.09 %ID/g, a tissue uptake at 24 h (% ID/g Blood) of 0.7 %ID/g and a tissue uptake at 72 h (% ID/g Blood) of 0.21 %ID/g. It also gave a tissue uptake at 4 h (% ID/g Fat) of 3.32 %ID/g, a tissue uptake at 24 h (% ID/g Fat) of 2.39 %ID/g and a tissue uptake at 72 h (% ID/g Fat) of 1.12 %ID/g. For the same compound, the tissue uptake at 4 h (% ID/g Femur) was 0.79 %ID/g, the tissue uptake at 24 h (% ID/g Femur) was 0.76 %ID/g and the tissue uptake at 72 h (% ID/g Femur) was 0.59 %ID/g. For the same compound, the tissue uptake at 4 h (% ID/g Heart) was 1.36 %ID/g, the tissue uptake at 24 h (% ID/g Heart) was 0.85 %ID/g and the tissue uptake at 72 h (% ID/g Heart) was 0.47 %ID/g. For the same compound, the tissue uptake at 4 h (% ID/g Intestine) was 2.27 %ID/g, the tissue uptake at 24 h (% ID/g Intestine) was 1.29 %ID/g and the tissue uptake at 72 h (% ID/g Intestine) was 1.39 %ID/g. The tissue uptake at 4 h (% ID/g Kidney) was 20.7 %ID/g, the tissue uptake at 24 h (% ID/g Kidney) was 18.4 %ID/g and the tissue uptake at 72 h (% ID/g Kidney) was 14.2 %ID/g. It also gave a tissue uptake at 4 h (% ID/g Liver) of 12 %ID/g, a tissue uptake at 24 h (% ID/g Liver) of 7.22 %ID/g and a tissue uptake at 72 h (% ID/g Liver) of 3.99 %ID/g. The tissue uptake at 4 h (% ID/g Lung) was 2.89 %ID/g, the tissue uptake at 24 h (% ID/g Lung) was 1.72 %ID/g and the tissue uptake at 72 h (% ID/g Lung) was 1.36 %ID/g. For the same compound, the tissue uptake at 4 h (% ID/g Muscle) was 0.41 %ID/g, the tissue uptake at 24 h (% ID/g Muscle) was 0.25 %ID/g and the tissue uptake at 72 h (% ID/g Muscle) was 0.13 %ID/g. For the same compound, the tissue uptake at 4 h (% ID/g Pancreas) was 5.66 %ID/g, the tissue uptake at 24 h (% ID/g Pancreas) was 3.34 %ID/g and the tissue uptake at 72 h (% ID/g Pancreas) was 1.28 %ID/g. For the same compound, the tissue uptake at 4 h (% ID/g Spleen) was 0.97 %ID/g, the tissue uptake at 24 h (% ID/g Spleen) was 0.85 %ID/g and the tissue uptake at 72 h (% ID/g Spleen) was 0.36 %ID/g. The tissue uptake at 4 h (% ID/g Stomach) was 6.6 %ID/g, the tissue uptake at 24 h (% ID/g Stomach) was 5.96 %ID/g and the tissue uptake at 72 h (% ID/g Stomach) was 3.8 %ID/g. The tissue uptake at 4 h (% ID/g Tumor) was 45.1 %ID/g, the tissue uptake at 24 h (% ID/g Tumor) was 35.2 %ID/g and the tissue uptake at 72 h (% ID/g Tumor) was 36.4 %ID/g.
In the case of `CC(C)(C)C(=O)CN1C(=O)[C@H](NC(=O)Nc2cccc(C(=O)N[C@@H](CCC(=O)N[C@@H](CCC(=O)N[C@@H](CCC(=O)N[C@@H](CCCCNC(=O)COCCOCCNC(=O)COCCOCCNC(=O)CCC(C(=O)O)N3CCN(CC(=O)O)CCN(CC(=O)O)CCN(CC(=O)O)CC3)C(N)=O)C(=O)O)C(=O)O)C(=O)O)c2)CN(C2CCCCC2)c2ccccc21` (some centres unmarked) [^177Lu-C-4, metal not drawn, reference compound], the tissue uptake at 4 h (% ID/g Blood) is reported as 0.09 %ID/g, the tissue uptake at 24 h (% ID/g Blood) is reported as 0.01 %ID/g and the tissue uptake at 4 h (% ID/g Femur) is reported as 0.04 %ID/g. The tissue uptake at 24 h (% ID/g Femur) was 0.04 %ID/g, the tissue uptake at 4 h (% ID/g Heart) was 0.07 %ID/g and the tissue uptake at 24 h (% ID/g Heart) was 0.03 %ID/g. For the same compound, the tissue uptake at 4 h (% ID/g Intestine) was 0.12 %ID/g, the tissue uptake at 24 h (% ID/g Intestine) was 0.04 %ID/g and the tissue uptake at 4 h (% ID/g Kidney) was 3.38 %ID/g. For the same compound, the tissue uptake at 24 h (% ID/g Kidney) was 1.32 %ID/g, the tissue uptake at 4 h (% ID/g Liver) was 0.17 %ID/g and the tissue uptake at 24 h (% ID/g Liver) was 0.11 %ID/g. For the same compound, the tissue uptake at 4 h (% ID/g Lung) was 0.07 %ID/g, the tissue uptake at 24 h (% ID/g Lung) was 0.03 %ID/g and the tissue uptake at 4 h (% ID/g Muscle) was 0.02 %ID/g. The tissue uptake at 24 h (% ID/g Muscle) was 0.01 %ID/g, the tissue uptake at 4 h (% ID/g Pancreas) was 0.03 %ID/g and the tissue uptake at 24 h (% ID/g Pancreas) was 0.01 %ID/g. The tissue uptake at 4 h (% ID/g Spleen) was 0.06 %ID/g, the tissue uptake at 24 h (% ID/g Spleen) was 0.02 %ID/g and the tissue uptake at 4 h (% ID/g Stomach) was 0.06 %ID/g. For the same compound, the tissue uptake at 24 h (% ID/g Stomach) was 0.03 %ID/g, the tissue uptake at 4 h (% ID/g Tumor) was 4.69 %ID/g and the tissue uptake at 24 h (% ID/g Tumor) was 1.44 %ID/g.
In the case of `C[C@@H](O)[C@H](NC(=O)[C@@H]1CSSC[C@H](NC(=O)[C@@H](Cc2ccccc2)NC(=O)[C@H](CCCCNC(=O)c2cccc(NC(=O)N[C@@H]3CN(C4CCCCC4)c4ccccc4N(CC(=O)C(C)(C)C)C3=O)c2)NC(=O)[C@H](CCCNC(=N)N)NC(=O)CN2CCN(CC(=O)O)CCN(CC(=O)O)CCN(CC(=O)O)CC2)C(=O)N[C@@H](Cc2ccc(O)cc2)C(=O)N[C@H](Cc2c[nH]c3ccccc23)C(=O)N[C@@H](CCCCN)C(=O)N[C@@H]([C@@H](C)O)C(=O)N1)C(=O)O` [Compound I-62, DOTA-R-K(Z360)-f[CYwKTC]T-OH] ({DOTA}-RK([3Abz-CO-X1])[dF]CY[dW]KTCT-OH; disulfide 4-9), the tissue to tissue ratio at 24 h (T/K Tumor/Kidney ratio) is reported as 0.7, the tissue to tissue ratio at 24 h (T/L Tumor/Liver ratio) is reported as 0.3 and the tissue to tissue ratio at 24 h (T/P Tumor/Pancreas ratio) is reported as 6.1. The tissue to tissue ratio at 24 h (T/Sp Tumor/Spleen ratio) was 13, the tissue to tissue ratio at 24 h (T/St Tumor/Stomach ratio) was 6.4 and the tissue uptake at 24 h (uptake Kidney) was 14.7 %ID/g. It also gave a tissue uptake at 24 h (uptake Liver) of 32.4 %ID/g, a tissue uptake at 24 h (uptake Pancreas) of 1.78 %ID/g and a tissue uptake at 24 h (uptake Spleen) of 0.82 %ID/g. It also gave a tissue uptake at 24 h (uptake Stomach) of 1.68 %ID/g and a tissue uptake at 24 h (uptake Tumor) of 10.8 %ID/g.
